According to article doi:10.1101/701250 (bioRxiv, 2019):
Like-named read-outs stand apart in the source and are kept apart here. One block for each binder: values may come before it.

B3: KIF3A purified from E. coli (natural protein, Mus musculus, UniProt P28741 1-701, looked up)
chain: MPINKSEKPESCDNVKVVVRCRPLNEREKSMCYRQAVSVDEMRGTITVHKTDSSNEPPKTFTFDTVFGPESKQLDVYNLTARPIIDSVLEGYNGTIFAYGQTGTGKTFTMEGVRAVPGLRGVIPNSFAHIFGHIAKAEGDTRFLVRVSYLEIYNEEVRDLLGKDQTQRLEVKERPDVGVYIKDLSAYVVNNADDMDRIMTLGHKNRSVGATNMNEHSSRSHAIFTITIECSEKGVDGNMHVRMGKLHLVDLAGSERQAKTGATGQRLKEATKINLSLSTLGNVISALVDGKSTHVPYRNSKLTRLLQDSLGGNSKTMMCANIGPADYNYDETISTLRYANRAKNIKNKARINEDPKDALLRQFQKEIEELKKKLEEGEEVSGSDISGSEEDDEEGELGEDGEKKKKRRDQAGKKKVSPDKMVEMQAKIDEERKALETKLDMEEEERNKARAELERREKDLLKAQQEHQSLLEKLSALEKKVIVGGVDLLAKAEEQEKLLEESNMELEERRRRAEQLRKELEEKEQERLDIEEKYTSLQEEAQGKTKKLKKVWTMLMAAKSEMADLQQEHQREIEGLLENIRQLSRELRLQMLIIDNFIPQDYQEMIENYVHWNEDIGEWQLKCVAYTGNNMRKQTPVPDKKERDPFEVDLSHVYLAYTEESLRQSLMKLERPRTSKGKARPKMGRRKRSAKPETVIDSLLQ

Key:
full-length APC-GFP = full-length APC-GFP (Mus musculus, UniProt Q61315 1-2845); assay: MST
full-length APC-GFP, sequence (Q61315 whole entry): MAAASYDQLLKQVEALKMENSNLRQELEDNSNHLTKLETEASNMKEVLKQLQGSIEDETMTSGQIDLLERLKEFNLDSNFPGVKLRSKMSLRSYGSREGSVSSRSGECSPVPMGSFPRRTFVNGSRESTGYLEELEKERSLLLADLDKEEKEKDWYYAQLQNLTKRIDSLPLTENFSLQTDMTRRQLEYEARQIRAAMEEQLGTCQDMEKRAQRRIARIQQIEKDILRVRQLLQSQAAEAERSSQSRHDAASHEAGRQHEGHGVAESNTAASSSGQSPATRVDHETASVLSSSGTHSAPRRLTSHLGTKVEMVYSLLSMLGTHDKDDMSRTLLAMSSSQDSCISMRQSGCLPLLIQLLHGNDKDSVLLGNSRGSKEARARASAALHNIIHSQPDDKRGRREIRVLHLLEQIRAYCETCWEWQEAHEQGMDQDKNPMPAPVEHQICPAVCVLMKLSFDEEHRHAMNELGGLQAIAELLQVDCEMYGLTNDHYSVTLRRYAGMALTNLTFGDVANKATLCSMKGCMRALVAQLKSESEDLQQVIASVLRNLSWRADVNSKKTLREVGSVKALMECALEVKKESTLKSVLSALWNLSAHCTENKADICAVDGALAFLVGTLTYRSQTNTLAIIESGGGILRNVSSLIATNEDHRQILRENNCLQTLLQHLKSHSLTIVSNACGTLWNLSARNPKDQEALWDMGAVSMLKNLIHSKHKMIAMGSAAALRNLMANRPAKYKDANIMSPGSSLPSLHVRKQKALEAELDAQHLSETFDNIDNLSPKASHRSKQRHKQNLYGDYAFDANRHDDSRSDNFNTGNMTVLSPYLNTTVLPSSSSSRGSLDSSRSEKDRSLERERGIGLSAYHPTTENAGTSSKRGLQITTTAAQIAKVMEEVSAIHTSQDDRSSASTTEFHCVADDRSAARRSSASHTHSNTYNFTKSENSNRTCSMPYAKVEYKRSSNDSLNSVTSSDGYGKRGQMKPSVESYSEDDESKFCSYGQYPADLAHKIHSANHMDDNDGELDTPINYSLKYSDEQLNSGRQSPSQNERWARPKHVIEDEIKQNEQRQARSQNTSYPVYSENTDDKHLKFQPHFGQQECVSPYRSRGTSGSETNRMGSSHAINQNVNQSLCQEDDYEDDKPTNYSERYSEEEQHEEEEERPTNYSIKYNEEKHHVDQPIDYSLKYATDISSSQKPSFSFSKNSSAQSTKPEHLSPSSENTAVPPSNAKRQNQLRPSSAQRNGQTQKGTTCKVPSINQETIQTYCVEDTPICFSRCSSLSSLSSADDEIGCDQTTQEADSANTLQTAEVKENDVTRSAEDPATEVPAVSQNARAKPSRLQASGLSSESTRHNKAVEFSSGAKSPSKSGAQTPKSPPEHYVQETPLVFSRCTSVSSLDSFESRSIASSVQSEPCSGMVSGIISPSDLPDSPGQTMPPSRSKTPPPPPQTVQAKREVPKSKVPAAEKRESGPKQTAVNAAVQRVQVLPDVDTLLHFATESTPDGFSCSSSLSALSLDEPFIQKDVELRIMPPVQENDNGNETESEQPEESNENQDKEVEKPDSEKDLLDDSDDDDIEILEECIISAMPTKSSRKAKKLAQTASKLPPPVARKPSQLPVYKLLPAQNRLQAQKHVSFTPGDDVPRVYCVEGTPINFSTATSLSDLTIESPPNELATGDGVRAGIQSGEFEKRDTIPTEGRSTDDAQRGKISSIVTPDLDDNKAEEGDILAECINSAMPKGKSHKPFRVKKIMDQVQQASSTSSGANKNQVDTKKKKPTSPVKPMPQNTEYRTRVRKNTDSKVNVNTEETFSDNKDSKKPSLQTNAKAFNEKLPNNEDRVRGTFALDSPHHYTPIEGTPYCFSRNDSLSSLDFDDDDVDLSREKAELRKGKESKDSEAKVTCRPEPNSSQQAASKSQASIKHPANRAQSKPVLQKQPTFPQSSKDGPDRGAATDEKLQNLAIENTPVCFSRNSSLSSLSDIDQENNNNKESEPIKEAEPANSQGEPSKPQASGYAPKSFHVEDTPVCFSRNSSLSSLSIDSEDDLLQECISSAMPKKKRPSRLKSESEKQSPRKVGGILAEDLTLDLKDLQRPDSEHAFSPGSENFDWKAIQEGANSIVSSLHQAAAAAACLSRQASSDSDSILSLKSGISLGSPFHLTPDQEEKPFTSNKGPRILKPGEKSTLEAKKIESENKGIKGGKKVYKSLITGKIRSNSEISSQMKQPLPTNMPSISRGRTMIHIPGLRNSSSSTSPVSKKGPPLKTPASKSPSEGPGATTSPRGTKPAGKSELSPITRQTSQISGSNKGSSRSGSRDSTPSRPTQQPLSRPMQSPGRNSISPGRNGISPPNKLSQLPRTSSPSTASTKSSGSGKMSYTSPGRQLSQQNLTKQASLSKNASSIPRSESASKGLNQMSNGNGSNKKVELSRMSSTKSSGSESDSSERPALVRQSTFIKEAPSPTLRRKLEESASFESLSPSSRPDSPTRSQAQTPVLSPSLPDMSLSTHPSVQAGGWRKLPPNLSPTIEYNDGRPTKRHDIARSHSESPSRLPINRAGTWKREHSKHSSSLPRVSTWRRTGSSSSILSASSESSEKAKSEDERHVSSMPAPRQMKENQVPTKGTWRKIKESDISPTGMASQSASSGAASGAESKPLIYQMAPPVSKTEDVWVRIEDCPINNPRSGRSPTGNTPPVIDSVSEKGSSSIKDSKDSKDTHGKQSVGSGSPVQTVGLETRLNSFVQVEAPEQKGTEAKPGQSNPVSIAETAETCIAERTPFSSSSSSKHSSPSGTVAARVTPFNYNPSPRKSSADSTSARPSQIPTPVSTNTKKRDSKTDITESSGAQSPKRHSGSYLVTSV

[1] = target: B3; assay: SEC-MALS
[2] = target: the molecule itself
SEC-MALS = target: the molecule itself; assay: SEC-MALS

binding result (full-length APC-GFP): binds
stoichiometry N [1]: 1 KAP3 per KIF3A dimer
B1: KAP3 (separately purified) (natural protein, Mus musculus, UniProt P70188-1 1-793, looked up)
chain: MQGEDARYLKRKVKGGNIDVHPSEKALIVQYEVEATILGEMGDPMLGERKECQKIIRLKSLNANTDITSLARKVVEECKLIHPSKLSEVEQLLYYLQNRRDSLPGKEKKEKSSKPKDPPPFEGMEIDEVANINDMDEYIELLYEDIPDKVRGSALILQLARNPDNLEELLLNETALGALARVLREDWKQSVELATNIIYIFFCFSSFSHFHGLITHYKIGALCMNIIDHELKRHELWQEELSKKKKAVDEDLENQTLRKDYDKTFKKYQGLVVKQEQLLRVALYLLLNLAEDTRTELKMRNKNIVHMLVKALDRDNFELLILVVSFLKKLSIFMENKNDMVEMDIVEKLVKMIPCEHEDLLNITLRLLLNLSFDTGLRNKMVQVGLLPKLTALLGNENYKQIAMCVLYHISMDDRFKSMFAYTDCIPQLMKMLFECSDERIDLELISFCINLAANKRNVQLICEGNGLKMLMKRALKLKDPLLMKMIRNISQHDGPTKNLFIDYVGDLAAQISSDEEEEFVIECLGTLANLTIPDLDWELVLKEYKLVPFLKDKLKPGAAEDDLVLEVVIMIGTVSMDDSCAALLAKSGIIPALIELLNAQQEDDEFVCQIIYVFYQMVFHQATRDVIIKETQAPAYLIDLMHDKNNEIRKVCDNTLDIIAEYDEEWAKKIQSEKFRWHNSQWLEMVESRQLDESEQYLYGDDRIEPYIHEGDILERPDLFYNSDGLITSEGAISPDFFNDFHLQNGDVVGQHAFPGSLGMDGFGQPLGILGRPATAYGFRPDEPYYYSFGSR

B2: homodimeric KIF3A-SNAP labelled with Alexa647 or TMR (natural protein, Mus musculus, UniProt P28741 1-701, looked up)
chain: MPINKSEKPESCDNVKVVVRCRPLNEREKSMCYRQAVSVDEMRGTITVHKTDSSNEPPKTFTFDTVFGPESKQLDVYNLTARPIIDSVLEGYNGTIFAYGQTGTGKTFTMEGVRAVPGLRGVIPNSFAHIFGHIAKAEGDTRFLVRVSYLEIYNEEVRDLLGKDQTQRLEVKERPDVGVYIKDLSAYVVNNADDMDRIMTLGHKNRSVGATNMNEHSSRSHAIFTITIECSEKGVDGNMHVRMGKLHLVDLAGSERQAKTGATGQRLKEATKINLSLSTLGNVISALVDGKSTHVPYRNSKLTRLLQDSLGGNSKTMMCANIGPADYNYDETISTLRYANRAKNIKNKARINEDPKDALLRQFQKEIEELKKKLEEGEEVSGSDISGSEEDDEEGELGEDGEKKKKRRDQAGKKKVSPDKMVEMQAKIDEERKALETKLDMEEEERNKARAELERREKDLLKAQQEHQSLLEKLSALEKKVIVGGVDLLAKAEEQEKLLEESNMELEERRRRAEQLRKELEEKEQERLDIEEKYTSLQEEAQGKTKKLKKVWTMLMAAKSEMADLQQEHQREIEGLLENIRQLSRELRLQMLIIDNFIPQDYQEMIENYVHWNEDIGEWQLKCVAYTGNNMRKQTPVPDKKERDPFEVDLSHVYLAYTEESLRQSLMKLERPRTSKGKARPKMGRRKRSAKPETVIDSLLQ
modifications: Alexa647 or TMR on the SNAP tag
stoichiometry N [2]: 2

Binder: B3
stoichiometry N (SEC-MALS): 2
